Measured values: patent US20190233522A1, “NEW DOSAGE REGIMENS FOR ANTIBODY DRUG CONJUGATES BASED ON ANTI-AXL ANTIBODIES” (GENMAB A/S, priority 2016, published 2019)

Experiments:
LCLC-103H cells = assay: Cytotoxicity assay (CellTiter-Glo) in LCLC-103H cells; type: cell-based, human; details: 5 days incubation
Protocol: (§1) LCLC-103H cells (human large cell lung cancer) and A431 cells (DMSZ, Braunschweig, Germany) were cultured in RPMI 1640 with L-Glutamine (Cambrex; cat.no. BE12-115F) supplemented with 10% (vol/vol) heat inactivated Cosmic Calf Serum (Perbio; cat.no. SH30087.03), 2 mM L-glutamine (Cambrex; cat.no. US17-905C), 50 IU/mL penicillin, and 50 µg/mL streptomycin (Cambrex; cat.no. DE17-603E). MDA-MB231 cells were cultured in DMEM with high glucose and HEPES (Lonza #BE12-709F), Donor Bovine Serum with Iron (Life Technologies #10371-029), 2 mM L-glutamine (Lonza #BE17 -605E), 1 mM Sodium Pyruvate (Lonza #BE13-115E), and MEM Non-Essential Amino Acids Solution (Life Technologies #11140). The cell lines were maintained at 37° C. in a 5% (vol/vol) CO2 humidified incubator. LCLC-103H, A431 and MDA-MB231 cells were cultured to near confluency, after which cells were trypsinized, resuspended in culture medium and passed through a cell strainer (BD Falcon, cat.no. 352340) to obtain a single cell suspension. […]
(§2) Subsequently, 180 μL per well was transferred to white 96-well Optiplate™ plates (PerkinElmer, Waltham, Mass.; cat.no. 6005299), which were incubated for 30 min at room temperature. Finally, luminescence was measured on an EnVision multiplate reader (Envision, Perkin Elmer).

A431 cells = assay: Cytotoxicity assay (CellTiter-Glo) in A431 cells; type: cell-based; details: A431 (n = 3), 5 days incubation
Protocol: as §1, §2

MDA-MB231 cells = assay: Cytotoxicity assay (CellTiter-Glo) in MDA-MB231 cells; type: cell-based; details: MDA-MB231 (n = 2), 5 days incubation
Protocol: as §1, §2

[1] = test system: LCLC-103H xenograft tumors; assay: Therapeutic treatment of SC LCLC-103H tumor xenografts (Example 3); type: in vivo, SCID mice
Protocol: The in vivo efficacy of MMAE-conjugated anti-AXL antibodies was determined in established subcutaneous (SC) LCLC-103H xenograft tumors in SCID mice. 5×10^6 LCLC-103H (large cell lung carcinoma) tumor cells (obtained from Leibniz-Institut DSMZ-Deutsche Sammlung von Mikroorganismen and Zellkulturen GmbH (DSMZ)) in 200 μL PBS were injected subcutaneously in the right flank of female SCID mice. Starting 14-21 days after tumor cell inoculation, when the average tumor size was >100-200 mm^3 and distinct tumor growth was observed, a single injection with 1 mg/kg (20 μg/mouse) IgG1-AXL-vcMMAE antibodies or control (unconjugated IgG1-b12) was given intraperitoneally (100 μL/mouse). Tumor volume was determined at least two times per week. Tumor volumes (mm^3) were calculated from caliper (PLEXX) measurements as: 0.52×(length)×(width)^2.

PAXF1657 tumors = assay: PAXF1657 pancreas cancer PDX model; type: in vivo, NMRI nu/nu mice
Protocol: Human pancreas tumor tissue was subcutaneously implanted in the left flank of 5-7 weeks old female NMRI nu/nu mice. […] At day of randomization (day 0), the 3 ADCs were dosed intravenously (i.v.) at either 4 mg/kg or 2 mg/kg, and the control group received a single dose of IgG1-b12 (4 mg/kg). Tumor volumes (mm^3) were monitored twice weekly and were calculated from caliper (PLEXX) measurements as: 0.52×(length)×(width)^2.

A431 tumors = assay: A431 xenograft model (high Gas6); type: in vivo; details: 3 mg/kg i.p., SCID mice
Protocol: (§3) Tumor induction was performed by subcutaneous injection of 5×10^6 A431 or LCLC-103H tumor cells (both obtained from Leibniz-Institut—Deutsche Sammlung von Mikroorganismen and Zellkulturen GmbH (DSMZ)) in 200 μL PBS in the right flank of female SCID mice. Treatment was started 14-21 days after tumor cell inoculation, when the average tumor size was >100-200 mm^3 and distinct tumor growth was observed. Mice received a single injection or a total of 4 biweekly intraperitoneal injections with IgG1-AXL-vcMMAE ADCs or control antibody (unconjugated IgG1-b12), as indicated. Tumor volume was determined at least two times per week. Tumor volumes (mm^3) were calculated from caliper (PLEXX) measurements as: 0.52×(length)×(width)^2.

LCLC-103H tumors = assay: LCLC-103H xenograft model (low Gas6, Example 5); type: in vivo; details: 3 mg/kg i.p., SCID mice
Protocol: as §3

AXL = AXL (Homo sapiens, UniProt P30530); assay: Competition with Gas6 for binding to AXL
[2] = Pre-clinical PK studies in cynomolgus monkey; type: in vivo
Text: Data from 5 in-vivo pre-clinical studies, shown in the Table below, were provided, containing measurements of the plasma ADC level, plasma IgG level, and plasma MMAE level (only measured in study 5).
All studies appeared to show a significant drop in plasma concentrations of ADC/IgG after the 2nd dose when compared to the first dose, which corresponded with an ADA response. As this is a fully human antibody, ADA response are only very rarely expected to occur in humans. Therefore, only data after the first dose were included in the data preparation and subsequently modelled.

B1: IgG1-AXL-148-vcMMAE: anti-AXL antibody 148 (VH SEQ ID No 5, VL SEQ ID No 6), Ig2 binder, conjugated to vcMMAE (conjugate)
VH: EVQLLESGGGLVQPGGSLRLSCAASGFTFSSYAMTWVRQAPGKGLEWVSAISISGGSTFYADSVKGRFTISRDNSKNTLYLQMNSLRAEDTAVYYCRGYSGYVYDAFDFWGQGTMVTVSS
VL: DIQMTQSPSSLSASVGDRVTITCRASQGISNWLAWYQQKPEKAPKSLIYAASSLQSGVPSRFSGSGSGTDFTLTISSLQPEDFATYYCQQYNSYPLTFGGGTKVEIK
modifications: vc-MMAE conjugate; homo sapiens
LCLC-103H cells
  EC50: 0.012 mg/L
A431 cells
  EC50 Mean: 0.070 mg/L
MDA-MB231 cells
  EC50 Mean: 0.012 mg/L
[1]; 1 mg/kg single i.p.
  complete tumor reduction: in some mice within these groups to complete tumor reduction
[1]; day 30, One Way ANOVA (Dunnett's), 1 mg/kg single i.p.
  tumor volume versus control IgG1-b12: highly significant difference
[1]; single i.p. injection 1 mg/kg, SCID mice
  anti-tumor activity in established SC LCLC-103H tumors: induced tumor regression
PAXF1657 tumors; 2 mg/kg i.v., day 0
  growth of PAXF1657 tumors compared to the control group: significantly reduced the growth
PAXF1657 tumors; 4 mg/kg i.v., day 0
  anti-tumor activity on PAXF1657 tumors: induced tumor regression
PAXF1657 tumors; day 14, 2 mg/kg or 4 mg/kg, p<0.001 Tukey's multiple comparison test
  average tumor size versus isotype control IgG1-b12: significantly smaller
PAXF1657 tumors; dose not given
  anti-tumor activity in the PAXF1657 model: induced dose-dependent antitumor activity
A431 tumors
  anti-tumor activity on A431 tumors: induced growth inhibition
LCLC-103H tumors
  anti-tumor activity in the LCLC-103H xenograft model: induced tumor regression
AXL
  competition with Gas6 for binding to AXL: lack of competition
[2]
  pharmacokinetic properties, unconjugated antibody (study 3) versus ADC (study 2): similar
